Measured values: patent publication US11407825B2, “NaPi2b-targeted polymer antibody-drug conjugates and methods of use thereof” (Mersana Therapeutics, Inc., priority 2018, dated 2022)

Assays:
[1] = Plasma PK profile in patients dosed with XMT-1536; format: in vivo, human; conditions: 30 patients, 3 to 40 mg/m^2, total antibody, conjugated drug, free drug, AF
Experimental: The PK profile of the active ingredient of XMT-1536, its release product and selected metabolites are determined for each patient by non-compartmental analysis using standard PK software (e.g., Phoenix WinNonlin). PK parameters per patient include time of maximum observed concentration (tmax), maximum concentration (Cmax), and area under the concentration curve for the last measurable concentration (AUC0-last). When the terminal elimination phase is identified, additional parameters such as elimination half-life, clearance, and volume of distribution are determined.
The plasma PK profile for the analytes (total antibody; conjugated drug (AF-HPA); free drug (AF-HPA) and the drug metabolite auristatin F (AF)) was determined in blood samples from 30 patients (3 mg/m^2, n=1; 6 mg/m^2, n=1; 12 mg/m^2, n=7; 20 mg/m^2, n=15; 30 mg/m^2, n=5; 40 mg/m^2, n=1). […] The PK characteristics is consistent with that reported for other approved antibody-drug conjugates or those currently in clinical development.

[2] = tested on: NaPi2b expressing tumors; assay: Phase 1b study of XMT-1536: tumor response per RECIST version 1.1; format: in vivo, human; conditions: for decrease in diameter of target lesions: DL4A (20 mg/m^2)
From the text: The study presented herein is an open label, multi-center Phase 1b study of XMT-1536 administered as an intravenous infusion once every three or four weeks. The dose escalation (DES) part of the study will establish the maximum tolerated dose (MTD) or recommended Phase 2 dose (RP2D) for XMT-1536 in patients with a number of tumor types likely to express NaPi2b, with a focus on patients with platinum-resistant ovarian cancer and non-squamous non-small cell lung cancer (NSCLC). […] The RP2D may differ from the MTD and may take into account tolerability, pharmacokinetic and pharmacodynamic measures, and efficacy of XMT-1536 based on RECIST 1.1. After the first cycle, patients may continue to receive XMT-1536 until disease progression provided the drug is well-tolerated and patients continue to derive clinical benefit in the opinion of the Investigator. The DES segment of the study utilized an accelerated titration design. The first 3-week cycle of treatment constitutes the dose limiting toxicity (DLT) evaluation period. For the first two dose levels, a minimum of 1 patient was treated at each dose level. If this patient experiences a treatment-emergent adverse event of Grade 2 or higher, 2 additional patients will be added at this dose level, and the study will subsequently follow a 3+3 design, as described below. […] Starting with Dose Level 3, the study will follow a standard 3+3 design, with 3 patients enrolled initially at each dose level. […] However, in the event of 1 DLT, 3 additional patients will be enrolled at the same dose level. Any dose level with 2 or more DLTs will be considered to exceed the MTD and subsequent patients will be enrolled at lower dose level(s). After the first cycle, patients may continue to receive XMT-1536 until disease progression if the drug is well-tolerated and patients continue to derive clinical benefit in the opinion of the Investigator.
All adverse events will be graded according to the National Cancer Institute (NCI) Common Terminology Criteria version (CTCAE v4.03). The observation period for DLTs is 56 days, between Day 1 through end of Cycle 2 which includes the pre-dose assessments before receiving the Cycle 3 dose. In general, adverse events Grade ≥3 are DLTs with modifications for the following criteria: neutropenia hematologic toxicities, gastrointestinal toxicities, hepatic toxicities, and electrolyte imbalances. XMT-1536-related toxicity that delays initiation of Cycle 3 by more than 2 weeks, hospitalization to treat an infusion-related reaction, and any toxicity that prompts modification of the dose to be administered in Cycle 3 are also DLTs. Blood sampling will be performed to determine plasma PK parameters of XMT-1536, its release product auristatin F-HPA, and select metabolites. Testing for anti-drug antibodies (ADA) and neutralizing antibodies (nAb) will be performed. Tumor responses will be Investigator-assessed using Response Evaluation Criteria in Solid Tumors (RECIST), version 1.1, at the end of Cycle 2 and every 2 cycles thereafter.
In both segments of the study assessments with computerized tomography (CT) scans and RECIST version 1.1 criteria are performed at the end of Cycle 2 and at the end of every even-numbered cycle thereafter. Patients are continuously evaluated for adverse events, the use of concomitant medications, and the occurrence of infusion reactions in any cycle. Pharmacokinetic profiles of XMT-1536 and select release products/metabolites and the development of anti-drug antibodies are evaluated. RECIST version 1.1, is used to measure tumor response. The objective response rate (ORR—rate of complete response [CR] and partial response [PR]) and disease control rate (DCR—rate of CR, PR, and stable disease [SD]) will be measured for each cohort. Response duration, progression-free survival (PFS) and overall survival (OS) is estimated.
The primary analysis of efficacy is performed using both DES and EXP data. […]

[3] = All NSCLC, N 3, RECIST version 1.1
[4] = All Ovarian Cancer (OC), N 19, RECIST version 1.1
[5] = NSCLC ≥ 20 mg/m^2, N 2, RECIST version 1.1
[6] = OC + NSCLC ≥ 20 mg/m^2, N 18, RECIST version 1.1
[7] = OC ≥ 20 mg/m^2, N 16, RECIST version 1.1
[8] = OC ≥ 30 mg/m^2, N 7, RECIST version 1.1
[9] = ovarian cancer and lung adenocarcinoma, ≥20 mg/m^2 (N=18)

B1: XMT-1536: about 10-15 molecules of auristatin F-hydroxypropyl amide conjugated to a cysteine moiety of NaPi2b monoclonal antibody XMT-1535 via a PHF scaffold (conjugate, chains of the INN, looked up)
VH: QVQLVQSGAEVVKPGASVKMSCKASGYTFTGYNIHWVKQAPGQGLEWIGAIYPGNGDTSYKQKFRGRATLTADTSTSTVYMELSSLRSEDSAVYYCARGETARATFAYWGQGTLVTVSS
VL: DIQMTQSPSSLSASVGDRVTITCSASQDIGNFLNWYQQKPGKTVKVLIYYTSSLYSGVPSRFSGSGSGTDYTLTISSLQPEDFATYYCQQYSKLPLTFGQGTKLELK
modifications: auristatin F-hydroxypropyl amide via PHF scaffold
notes: about 10-15 molecules of auristatin F-hydroxypropyl amide conjugated to a cysteine moiety of NaPi2b monoclonal antibody XMT-1535 via a PHF scaffold
exposure with increasing doses, normalized to dose [1]: nearly dose proportional
DCR (PR + SD) ([2]; All NSCLC, N 3): 67%
DCR (PR + SD), patients ([2]; All NSCLC, N 3): 2
PD [2, 3]: 33%
PD, patients [2, 3]: 1
PR [2, 3]: 0 (0%)
PR, patients [2, 3]: 0 (0%)
DCR (PR + SD) ([2]; All Ovarian Cancer (OC), N 19): 58%
DCR (PR + SD), patients ([2]; All Ovarian Cancer (OC), N 19): 11
PD [2, 4]: 42%
PD, patients [2, 4]: 8
PR [2, 4]: 16%
PR, patients [2, 4]: 3
patients who reached partial remission ([2]; DL 4A): one
DCR (PR + SD) ([2]; NSCLC ≥ 20 mg/m^2, N 2): 100%
DCR (PR + SD), patients ([2]; NSCLC ≥ 20 mg/m^2, N 2): 2
PD [2, 5]: 0 (0%)
PD, patients [2, 5]: 0 (0%)
PR [2, 5]: 0 (0%)
PR, patients [2, 5]: 0 (0%)
DCR (PR + SD) ([2]; OC + NSCLC ≥ 20 mg/m^2, N 18): 61%
DCR (PR + SD), patients ([2]; OC + NSCLC ≥ 20 mg/m^2, N 18): 11
PD [2, 6]: 39%
PD, patients [2, 6]: 7
PR [2, 6]: 17%
PR, patients [2, 6]: 3
DCR (PR + SD) ([2]; OC ≥ 20 mg/m^2, N 16): 57%
DCR (PR + SD), patients ([2]; OC ≥ 20 mg/m^2, N 16): 9
PD [2, 7]: 43%
PD, patients [2, 7]: 7
PR [2, 7]: 19%
PR, patients [2, 7]: 3
DCR (PR + SD) ([2]; OC ≥ 30 mg/m^2, N 7): 71%
DCR (PR + SD), patients ([2]; OC ≥ 30 mg/m^2, N 7): 5
PD [2, 8]: 28%
PD, patients [2, 8]: 2
PR [2, 8]: 28%
PR, patients [2, 8]: 2
dose response of best response by RECIST (waterfall plot) ([2]; change in tumor size by dose level): there appears to be a dose response
anti-tumor activity ([2]; conclusions): early signs of anti-tumor activity
objective responses ([2]; doses of 20 mg/m^2 and higher): Objective responses have been observed
clinical activity based on objective responses and duration of treatment ([2]; doses of 20 mg/m^2 or higher): clinical activity was observed
DCR [2, 9]: 61%
ORR [2, 9]: 17%
PRs [2, 9]: 17%
PRs, patients [2, 9]: 3
SDs [2, 9]: 44%
SDs, patients [2, 9]: 8
disease control rate ([2]; patients treated with at least 12 mg/m^2, every three weeks, RECIST version 1.1): 67%
decrease in diameter of target lesions ([2]; person, platinum-resistant high-grade serous ovarian cancer, end of Cycle 2): 40%
decrease in diameter of target lesions ([2]; same patient, end of Cycle 3): 75%
patients who reached nearly partial remission ([2]; starting at DL 5): two
patients with stable disease (SD) as best response ([2]; ten patients with post-treatment restaging scans, as of February 2019): 9
outcome by dose level (swimmers plot) ([2]; time on study by dose level and tumor type): At lower doses the majority of patients came off study because of progressive disease, but starting at DL4, most patients had stable disease
